Key:
[1] = molecular target: the molecule itself; test: native gel or EMSA; native PAGE, 7.5% gel, Tris-glycine pH 8.8, 14 ug S100A12 in 2 mM Ca
[2] = molecular target: the molecule itself; test: native gel or EMSA; native PAGE, 7.5% gel, Tris-glycine pH 8.8, 14 ug S100A12 with 5 uM Zn
[3] = molecular target: the molecule itself; test: SEC; Superdex 200, 50 mM Tris-HCl pH 7.5, 200 mM NaCl, 20 C, 1 mg/ml injected; no ions added
[4] = molecular target: the molecule itself; test: native gel or EMSA; native PAGE, S100A12 in the presence of both Ca and Zn (also with the copper I chelator BCS)
[5] = molecular target: the molecule itself; test: native gel or EMSA; native PAGE, S100A12 with zinc and calcium plus TPEN (zinc chelator) or EDTA (divalent ion chelator)
[6] = molecular target: T1, Human RAGE-Fc fusion protein (human, UniProt Q15109 23-342); test: SPR; S100A12 immobilised (2,933 RU) by amine coupling on CM5; RAGE/Fc (125 nM) injected 3 min at 30 ul/min; HBS-P buffer with 1 mM Ca2+ and 20 uM Zn2+; 1:1 Langmuir model; conditions: both partners purified
T1 construct: RAGE (Receptor for Advanced Glycation End products), human; also called recombinant human RAGE/Fc; source: bought: R&D Systems
T1 sequence (Q15109 23-342): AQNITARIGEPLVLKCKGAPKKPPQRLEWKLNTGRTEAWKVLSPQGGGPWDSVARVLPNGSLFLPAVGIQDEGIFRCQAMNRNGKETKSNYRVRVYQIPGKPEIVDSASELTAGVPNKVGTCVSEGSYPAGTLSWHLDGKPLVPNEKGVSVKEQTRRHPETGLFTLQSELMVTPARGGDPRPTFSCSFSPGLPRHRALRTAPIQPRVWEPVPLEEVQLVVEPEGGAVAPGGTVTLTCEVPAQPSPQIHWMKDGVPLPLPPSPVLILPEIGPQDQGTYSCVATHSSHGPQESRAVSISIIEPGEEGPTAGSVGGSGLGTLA

Kd [6]: 4.6 nM | koff [6]: 0.00032 s⁻¹ | kon [6]: 68000 M⁻¹ s⁻¹
B1: Recombinant full-length human S100A12 (natural protein, UniProt P80511 1-92, looked up)
chain: MTKLEEHLEGIVNIFHQYSVRKGHFDTLSKGELKQLLTKELANTIKNIKDKAVIDEIFQGLDANQDEQVDFQEFISLVAIALKAAHYHTHKE
notes: S100A12, human, full length; expressed from a modified pQE60 vector with a stop codon inserted so that the protein has no histidine tag; Oligomeric state (dimer, tetramer, hexamer) depends on Ca2+ and Zn2+ in the sample; [U-15N] labelled for the NMR experiments; also called apo-S100A12; Ca2+-S100A12; source: E. coli, purified (Phenyl-Sepharose, ResQ ion exchange)
stoichiometry N [1]: ~6 | stoichiometry N [2]: ~4 | stoichiometry N [3]: 4 | stoichiometry N [4]: 6 | stoichiometry N [5]: 2

Reference: paper PMC2686732, “Both Ca^2+ and Zn^2+ are essential for S100A12 protein oligomerization and function” (BMC Biochemistry, 2009)
